Results: article PMC4014428, “Enhanced Interaction between Pseudokinase and Kinase Domains in Gcn2 stimulates eIF2α Phosphorylation in Starved Cells” (PLoS Genetics, 2014)
Positions count from the first letter of the chain named. Numbers in names are those of the source. Blank lines part the entries; values can stand above or below the binder they belong to.

Assays:
[1] = target: T1, HA epitope-tagged LexA fusion to a Gcn2 KD segment (residues 720–999) (S. cerevisiae, UniProt P15442 720-999); assay: co-IP; [35S]methionine-labelled in vitro translated YKD fragments incubated with 50 µg WCE of gcn2Δ yeast HQY132 expressing LexA-HA-KD(720–999); anti-HA agarose, 4°C 2 h, breaking buffer (50 mM Tris/HCl pH 7.5, 50 mM NaCl, 0.1% Triton, 1 mM DTT); SDS-PAGE and fluorography; pellet:input ratios normalised to WT YKD; conditions: partners not purified
T1 construct: the plasmid is PGAL-LexA-HA-GCN2 (720–999); also called HA-LexA-KD; LexA-HA-KD; source: yeast gcn2Δ strain HQY132, high-copy-number plasmid, in whole cell extract; not shown: LexA, N-terminal, kept; HA, N-terminal, kept

[2] = target: T1, HA epitope-tagged LexA fusion to a Gcn2 …; assay: co-IP; WCEs (50 µg protein) of gcn2Δ yeast HQY132 co-expressing LexA-HA-KD(720–999) and Gcn2 (WT or mutant) immunoprecipitated with anti-HA antibodies; blots with anti-Gcn2 and anti-LexA; pellet:input ratios of Gcn2 normalised to LexA-HA-KD in the pellet, three experiments; conditions: partners not purified

- level co-immunoprecipitated relative to WT YKD [1]: ~4 fold of WT
B1: Gcn2 YKD fragment (230–604) L527I (domain or fragment, S. cerevisiae, UniProt P15442 230-604, looked up)
chain: MFKFKAVVNPKPIKLTSDIFSFSKQFLVKPYIPPESPLADFLMSSEMMENFYYLLSEIELDNSYFNTSNGKKEIANLEKELETVLKAKHDNVNRLFGYTVERMGRNNATFVWKIRLLTEYCNYYPLGDLIQSVGFVNLATARIWMIRLLEGLEAIHKLGIVHKCINLETVILVKDADFGSTIPKLVHSTYGYTVLNMLSRYPNKNGSSVELSPSTWIAPELLKFNNAKPQRLTDIWQLGVLFIQIISGSDIVMNFETPQEFLDSTSMDETLYDLLSKMLNNDPKKRLGTLELLPMKFIRTNIDSTINRFNLVSESVNSNSLELTPGDTITVRGNGGRTLSQSSIRRRSFNVGSRFSSINPATRSRYASDFEEIAV
modifications: [35S]-methionine-labeled
notes: Gcn2 YKD segment, S. cerevisiae, residues 230-604; also called L527I YKD fragment; source: in vitro translated (TNT T7 Coupled Reticulocyte Lysate System), partially purified by ammonium sulfate precipitation

- level co-immunoprecipitated relative to WT YKD [1]: 60 % of WT
B2: Gcn2 YKD fragment (230–604) R528A (domain or fragment, S. cerevisiae, UniProt P15442 230-604, looked up)
chain: B1 chain with I298L, R299A
modifications: [35S]-methionine-labeled
notes: Gcn2 YKD segment, S. cerevisiae, residues 230-604; also called R528A YKD fragment; source: in vitro translated (TNT T7 Coupled Reticulocyte Lysate System), partially purified by ammonium sulfate precipitation

- level co-immunoprecipitated relative to WT YKD [1]: ~4 fold of WT
B3: Gcn2 YKD fragment (230–604) T518A/L527I (domain or fragment, S. cerevisiae, UniProt P15442 230-604, looked up)
chain: B1 chain with T289A
modifications: [35S]-methionine-labeled
notes: Gcn2 YKD segment, S. cerevisiae, residues 230-604; also called T518A/L527I YKD fragment; source: in vitro translated (TNT T7 Coupled Reticulocyte Lysate System), partially purified by ammonium sulfate precipitation

- proportion co-immunoprecipitated relative to WT Gcn2 [2]: ~0.33 fraction of WT
B4: Gcn2-ΔYKD (enzyme, S. cerevisiae, UniProt P15442 1-1659, looked up)
chain: MSLSHLTLDQYYEIQCNELEAIRSIYMDDFTDLTKRKSSWDKQPQIIFEITLRSVDKEPVESSITLHFAMTPMYPYTAPEIEFKNVQNVMDSQLQMLKSEFKKIHNTSRGQEIIFEITSFTQEKLDEFQNVVNTQSLEDDRLQRIKETKEQLEKEEREKQQETIKKRSDEQRRIDEIVQRELEKRQDDDDDLLFNRTTQLDLQPPSEWVASGEAIVFSKTIKAKLPNNSMFKFKAVVNPKPIKLTSDIFSFSKQFLVKPYIPPESPLADFLMSSEMMENFYYLLSEIELDNSYFNTSNGKKEIANLEKELETVLKAKHDNVNRNLVSESVNSNSLELTPGDTITVRGNGGRTLSQSSIRRRSFNVGSRFSSINPATRSRYASDFEEIAVLGQGAFGQVVKARNALDSRYYAIKKIRHTEEKLSTILSEVMLLASLNHQYVVRYYAAWLEEDSMDENVFESTDEESDLSESSSDFEENDLLDQSSIFKNRTNHDLDNSNWDFISGSGYPDIVFENSSRDDENEDLDHDTSSTSSSESQDDTDKESKSIQNVPRRRNFVKPMTAVKKKSTLFIQMEYCENRTLYDLIHSENLNQQRDEYWRLFRQILEALSYIHSQGIIHRDLKPMNIFIDESRNVKIGDFGLAKNVHRSLDILKLDSQNLPGSSDNLTSAIGTAMYVATEVLDGTGHYNEKIDMYSLGIIFFEMIYPFSTGMERVNILKKLRSVSIEFPPDFDDNKMKVEKKIIRLLIDHDPNKRPGARTLLNSGWLPVKHQDEVIKEALKSLSNPSSPWQQQVRESLFNQSYSLTNDILFDNSVPTSTPFANILRSQMTEEVVKIFRKHGGIENNAPPRIFPKAPIYGTQNVYEVLDKGGTVLQLQYDLTYPMARYLSKNPSLISKQYRMQHVYRPPDHSRSSLEPRKFGEIDFDIISKSSSESGFYDAESLKIIDEILTVFPVFEKTNTFFILNHADILESVFNFTNIDKAQRPLVSRMLSQVGFARSFKEVKNELKAQLNISSTALNDLELFDFRLDFEAAKKRLYKLMIDSPHLKKIEDSLSHISKVLSYLKPLEVARNVVISPLSNYNSAFYKGGIMFHAVYDDGSSRNMIAAGGRYDTLISFFARPSGKKSSNTRKAVGFNLAWETIFGIAQNYFKLASGNRIKKRNRFLKDTAVDWKPSRCDVLISSFSNSLLDTIGVTILNTLWKQNIKADMLRDCSSVDDVVTGAQQDGIDWILLIKQQAYPLTNHKRKYKPLKIKKLSTNVDIDLDLDEFLTLYQQETGNKSLINDSLTLGDKADEFKRWDENSSAGSSQEGDIDDVVAGSTNNQKVIYVPNMATRSKKANKREKWVYEDAARNSSNMILHNLSNAPIITVDALRDETLEIISITSLAQKEEWLRKVFGSGNNSTPRSFATSIYNNLSKEAHKGNRWAILYCHKTGKSSVIDLQR
notes: Gcn2, S. cerevisiae, otherwise full length, lacking the pseudokinase domain (YKD); also called gcn2-Δ324-538; source: yeast gcn2Δ strain HQY132, high-copy plasmid (p630 backbone), in whole cell extract
